Molecular target: T1, atg7_yeast ATG7 (UniProt P38862)
T1 sequence: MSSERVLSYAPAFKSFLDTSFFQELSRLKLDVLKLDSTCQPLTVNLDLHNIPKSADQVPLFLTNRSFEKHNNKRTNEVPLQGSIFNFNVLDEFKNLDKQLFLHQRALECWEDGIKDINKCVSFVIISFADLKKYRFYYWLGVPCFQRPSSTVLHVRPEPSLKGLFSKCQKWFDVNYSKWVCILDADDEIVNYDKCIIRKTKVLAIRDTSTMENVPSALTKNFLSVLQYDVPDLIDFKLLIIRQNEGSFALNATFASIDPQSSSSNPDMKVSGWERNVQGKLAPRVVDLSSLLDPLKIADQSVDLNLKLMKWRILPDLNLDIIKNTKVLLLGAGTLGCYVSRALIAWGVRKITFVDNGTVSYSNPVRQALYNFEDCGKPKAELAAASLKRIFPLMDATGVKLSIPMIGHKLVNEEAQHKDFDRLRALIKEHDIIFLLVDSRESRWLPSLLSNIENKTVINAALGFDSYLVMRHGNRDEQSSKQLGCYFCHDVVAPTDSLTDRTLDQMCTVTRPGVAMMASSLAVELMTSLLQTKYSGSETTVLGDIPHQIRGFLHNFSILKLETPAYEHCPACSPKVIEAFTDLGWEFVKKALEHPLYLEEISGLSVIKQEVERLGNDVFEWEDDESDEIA

effect of a mutation on the interaction: increasing interaction
Substance: Microtubule-associated protein 1 light chain 3 beta (Homo sapiens) (from UniProt Q9GZQ8) K65Y

— IntAct's records for PubMed 22056771
